B1: ZNF263 (parent)
chain: CSECGESFSRSSRLMSHQRTHTG

Variants of: B1
Test: protein stability index of a GFP-peptide fusion (GPS, HEK-293T) (PSI 1-6); higher = more stable
Details: c terminus: native
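Further: lentivirally expressed fusions sorted by FACS into six bins by GFP to DsRed ratio, PSI derived from sequencing read proportions per bin multiplied by bin number.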

Variant | protein stability index
CSECYESFSRSSRLMSHQRTHTG | 2.33
CSECDESFSRSSRLMSHQRTHTG | 1.79
CSECKESFSRSSRLMSHQRTHTG | 1.29
CSECLESFSRSSRLMSHQRTHTG | 1.92
CSECWESFSRSSRLMSHQRTHTG | 1.88
CSECQESFSRSSRLMSHQRTHTG | 2.03
CSECIESFSRSSRLMSHQRTHTG | 2.23
CSECAESFSRSSRLMSHQRTHTG | 2.77
CSECHESFSRSSRLMSHQRTHTG | 1.64
CSECFESFSRSSRLMSHQRTHTG | 3.91
CSECVESFSRSSRLMSHQRTHTG | 1.03
CSECCESFSRSSRLMSHQRTHTG | 2.33
CSECNESFSRSSRLMSHQRTHTG | 2.2
CSECRESFSRSSRLMSHQRTHTG | 1.4
CSECTESFSRSSRLMSHQRTHTG | 2.3
CSECEESFSRSSRLMSHQRTHTG | 1.41
CSECPESFSRSSRLMSHQRTHTG | 1.89
CSECSESFSRSSRLMSHQRTHTG | 1.69
CSACGESFSRSSRLMSHQRTHTG | 2.37
CSHCGESFSRSSRLMSHQRTHTG | 2.56
CSRCGESFSRSSRLMSHQRTHTG | 2.12
CSDCGESFSRSSRLMSHQRTHTG | 2.67
CSYCGESFSRSSRLMSHQRTHTG | 3.54
CSQCGESFSRSSRLMSHQRTHTG | 3.33
CSSCGESFSRSSRLMSHQRTHTG | 1.87

Variant | protein stability index
CSMCGESFSRSSRLMSHQRTHTG | 2.26
CSWCGESFSRSSRLMSHQRTHTG | 3.35
CSFCGESFSRSSRLMSHQRTHTG | 3.31
CSNCGESFSRSSRLMSHQRTHTG | 2.58
CSTCGESFSRSSRLMSHQRTHTG | 3.74
CSCCGESFSRSSRLMSHQRTHTG | 1.8
CSPCGESFSRSSRLMSHQRTHTG | 1.33
CSKCGESFSRSSRLMSHQRTHTG | 2.68
CSGCGESFSRSSRLMSHQRTHTG | 1.71
CSVCGESFSRSSRLMSHQRTHTG | 4.21
CSICGESFSRSSRLMSHQRTHTG | 4.09
CSLCGESFSRSSRLMSHQRTHTG | 2.9
CNECGESFSRSSRLMSHQRTHTG | 2.62
CQECGESFSRSSRLMSHQRTHTG | 2.84
CDECGESFSRSSRLMSHQRTHTG | 2.99
CCECGESFSRSSRLMSHQRTHTG | 1.79
CKECGESFSRSSRLMSHQRTHTG | 2.51
CGECGESFSRSSRLMSHQRTHTG | 2.86
CHECGESFSRSSRLMSHQRTHTG | 2.35
CIECGESFSRSSRLMSHQRTHTG | 2.77
CMECGESFSRSSRLMSHQRTHTG | 3.38
CLECGESFSRSSRLMSHQRTHTG | 2.67
CPECGESFSRSSRLMSHQRTHTG | 4.06
CVECGESFSRSSRLMSHQRTHTG | 3.85
CFECGESFSRSSRLMSHQRTHTG | 1.91

Variant | protein stability index
CRECGESFSRSSRLMSHQRTHTG | 2.92
CTECGESFSRSSRLMSHQRTHTG | 2.54
CEECGESFSRSSRLMSHQRTHTG | 3.24
CYECGESFSRSSRLMSHQRTHTG | 2.22
CAECGESFSRSSRLMSHQRTHTG | 2.4
CWECGESFSRSSRLMSHQRTHTG | 2.21
NSECGESFSRSSRLMSHQRTHTG | 2.31
RSECGESFSRSSRLMSHQRTHTG | 2.32
GSECGESFSRSSRLMSHQRTHTG | 2.36
HSECGESFSRSSRLMSHQRTHTG | 2.11
SSECGESFSRSSRLMSHQRTHTG | 2.14
QSECGESFSRSSRLMSHQRTHTG | 2.46
MSECGESFSRSSRLMSHQRTHTG | 2.22
ISECGESFSRSSRLMSHQRTHTG | 2.1
PSECGESFSRSSRLMSHQRTHTG | 3.14
FSECGESFSRSSRLMSHQRTHTG | 1.49
LSECGESFSRSSRLMSHQRTHTG | 1.75
WSECGESFSRSSRLMSHQRTHTG | 1.56
TSECGESFSRSSRLMSHQRTHTG | 2.06
ASECGESFSRSSRLMSHQRTHTG | 2.23
DSECGESFSRSSRLMSHQRTHTG | 1.84
VSECGESFSRSSRLMSHQRTHTG | 1.59
ESECGESFSRSSRLMSHQRTHTG | 3.15
YSECGESFSRSSRLMSHQRTHTG | 1.9
KSECGESFSRSSRLMSHQRTHTG | 2.05

Variant | protein stability index
CSECGEHFSRSSRLMSHQRTHTG | 2.58
CSECGEMFSRSSRLMSHQRTHTG | 3.59
CSECGEEFSRSSRLMSHQRTHTG | 3.51
CSECGEAFSRSSRLMSHQRTHTG | 2.94
CSECGEIFSRSSRLMSHQRTHTG | 3.88
CSECGELFSRSSRLMSHQRTHTG | 3.6
CSECGEVFSRSSRLMSHQRTHTG | 4.13
CSECGEYFSRSSRLMSHQRTHTG | 3.8
CSECGEDFSRSSRLMSHQRTHTG | 1.84
CSECGERFSRSSRLMSHQRTHTG | 2.33
CSECGETFSRSSRLMSHQRTHTG | 3.69
CSECGEGFSRSSRLMSHQRTHTG | 2.35
CSECGEQFSRSSRLMSHQRTHTG | 3.41
CSECGEWFSRSSRLMSHQRTHTG | 3.75
CSECGEPFSRSSRLMSHQRTHTG | 2.63
CSECGECFSRSSRLMSHQRTHTG | 2.67
CSECGEKFSRSSRLMSHQRTHTG | 2.72
CSECGENFSRSSRLMSHQRTHTG | 2.64
CSECGESFPRSSRLMSHQRTHTG | 1.74
CSECGESFCRSSRLMSHQRTHTG | 2.35
CSECGESFRRSSRLMSHQRTHTG | 2.37
CSECGESFKRSSRLMSHQRTHTG | 2.23
